The numbers were not newly measured in article PMC12462375, which cites them from elsewhere.

In one data set the target is basigin (Homo sapiens) (UniProt P35613).
A further data set deals with CD47 (Homo sapiens) (UniProt Q08722).

Sequence of UniProt P35613 (P35613 22-325): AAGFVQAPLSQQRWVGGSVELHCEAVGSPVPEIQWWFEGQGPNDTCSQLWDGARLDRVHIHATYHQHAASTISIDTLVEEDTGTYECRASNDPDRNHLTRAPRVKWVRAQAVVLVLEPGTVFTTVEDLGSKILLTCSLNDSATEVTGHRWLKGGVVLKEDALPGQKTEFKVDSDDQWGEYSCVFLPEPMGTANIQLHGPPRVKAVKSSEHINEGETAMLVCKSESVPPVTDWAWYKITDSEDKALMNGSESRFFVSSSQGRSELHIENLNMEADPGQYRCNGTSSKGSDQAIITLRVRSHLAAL

Consider PfRH5 (from UniProt Q8IFM5), for which, in the data set with basigin (Homo sapiens), the equilibrium dissociation constant (Kd) (in general, the free concentration of one partner at which half of the binding sites on the other are occupied at equilibrium, for simple one-to-one binding) is 1100 nM.

Turning to SIRPα (PDB 4CMM) (from UniProt P78324), in the data set with CD47 (Homo sapiens), the Kd is 740 nM.
